In patent US20240285785A1, “TARGETING SORTILIN” (priority 2022, published 2024):
*1 amine or outer side, *2 acyl side, *3 side chain or, on linkers, in order; H or OH if unused. Bridges are numbered along the chain shown (N, C = ends). Side-chain parts run from the residue outwards. [ ]: non-standard residue; d: D form. VCPAB = valine-citrulline p-aminobenzylcarbamate linker, CC(C)[C@H](N[*:1])C(=O)N[C@@H](CCCNC(N)=O)C(=O)Nc1ccc(COC(=O)[*:2])cc1; tBuAla = CC(C)(C)C[C@H](N)C(=O)O; MMAE = monomethyl auristatin E; Tle = CC(C)(C)[C@H](N)C(=O)O; Nle = CCCC[C@H](N)C(=O)O; βAla = NCCC(=O)O; Sar = CNCC(=O)O

Legend:
[1] = test system: MDA-MB-231 tumor cells; test: MDA-MB-231 murine xenograft efficacy model; type: in vivo, BALB/c Nude mice
Procedure: Murine xenograft experiments were conducted at WuXi AppTec and/or Charles River Laboratories and the care and use of animals was conducted in accordance with the regulations of the Association for Assessment and Accreditation of Laboratory Animal Care (AAALAC). MDA-MB-231 tumor cells (ATCC, Manassas, VA, cat #HTB-26) were grown and maintained in L15 medium supplemented with 10% heat inactivated fetal bovine serum, 1% Antibiotic-Antimycotic, and L-glutamine (2 mM) at 37° C. in an atmosphere in 5% CO2, 95% air. BALB/c Nude, female, 6-8 weeks, weighing approximately 18-22 g were purchased from Vital River Laboratory Animal Technology Co., LTD. Mice were inoculated subcutaneously at the right flank with MDA-MB-231 tumor cells (e.g., triple negative breast cancer cells) (10×10^6) in 0.2 mL of PBS with Matrigel (1:1) for tumor development. Animals were randomized and treatment was started when the average tumor volume reached approximately 150-200 mm^3 for the efficacy study. Dosing volume was adjusted based on body weight and was administered at 10 ml/Kg. […] Free MMAE payload was also tested, and similarly dissolved in 25 mM Histidine 10% sucrose pH 7 and one or more of the following doses, 0.6, 0.06 mg/kg, were administered to the mice i.v. at a QW×4 schedule. Tumor sizes were measured twice weekly in two dimensions using a caliper, and the volume in mm^3 calculated using the formula: V=0.5 a×b^2, where a and b are the long and short diameters of the tumor, respectively. TGI was calculated for each group using the formula: TGI (%)=[1−(Ti−T0)/(Vi−V0)]×100; where Ti is the average tumor volume of a treatment group on a given day, T0 is the average tumor volume of the treatment group on the first day of treatment, Vi is the average tumor volume of the vehicle control group on the same day with Ti, and V0 is the average tumor volume of the vehicle group on the first day of treatment.

[2] = Murine hematotoxicity assay; type: in vivo, BALB/c mice; details: 3 mg/kg i.v. QW×4, compared to vehicle or MMAE treatment
Procedure: Murine hematotoxicity experiments were conducted at Charles River Laboratories and the care and use of animals was conducted in accordance with the regulations of the Association for Assessment and Accreditation of Laboratory Animal Care (AAALAC). Wild type BALB/c, female, 7-8 weeks, weighing approximately 18-22 g were randomized and dosed intravenously with control or test articles at a QW×4 schedule. Dosing volume was adjusted based on body weight and was administered at 10 mL/Kg. PDCs were dissolved in 25 mM Histidine 10% sucrose pH 7 and 3 mg/kg was administered. Free MMAE payload was also tested, and similarly dissolved in 25 mM Histidine 10% sucrose pH 7 and administered to the mice at a dose of […] by i.v. injection at a QW×4 schedule. 3 days following each dose, 150 μL of whole blood was collected via submandibular method and placed in K2 EDTA tubes stored on ice. Blood neutrophil counts were performed on the day of collection by IDEXX labs. Body weights were recorded twice a week until study endpoint.
As outlined in the material and methods of Example 1, wild type BALB/c, female, 7-8 weeks, weighing approximately 18-22 g were randomized and dosed intravenously with control or test articles at a QW×4 schedule. Dosing volume was adjusted based on body weight and was administered at 10 ml/Kg. […] Free MMAE payload was also tested, and similarly dissolved in 25 mM Histidine 10% sucrose pH 7 and administered to the mice at a dose of […] by i.v. injection at a QW×4 schedule. 3 days following each dose, 150 μL of whole blood was collected via submandibular method and placed in K2 EDTA tubes stored on ice. Blood neutrophil counts were performed on the day of collection by IDEXX labs. Body weights were recorded twice a week until study endpoint.

[3] = Murine plasma stability assay; type: in vitro ADME; details: mouse, 37° C., read-out: Murine plasma stability assay, T1/2
Procedure: Frozen plasma was thawed at 37° C. and centrifuged at 4000 rpm to remove any clots and transferred to 96-well reaction plates by WuXi AppTec. Test compounds were added to the reaction plate at a final concentration of 2 μM and either stopped immediately or incubated at 37° C. for 5 minutes, 10 minutes, 30 minutes, 60 minutes, or 120 minutes. At the end of incubation, stop solution consisting of 200 ng/mL tolbutamide and 200 ng/mL labetalol in ACN was added to precipitate protein and mixed thoroughly. Samples were then transferred to a bioanalysis plate and shaken for 10 minutes prior to HPLC-MS/MS analysis of percent remaining compound.

[4] = target: T1, Human SORT1 (78-755)-His (Acrobiosystems) (human, UniProt Q99523 78-755); test: SPR (Biacore 8K), SORT1 amine-coupled to CM5 chip, PDC as analyte, 1:1 kinetic model
T1 construct: range 78-755; Amine-coupled to a CM5 chip in the SPR assay; not shown: His tag
T1 sequence (looked up): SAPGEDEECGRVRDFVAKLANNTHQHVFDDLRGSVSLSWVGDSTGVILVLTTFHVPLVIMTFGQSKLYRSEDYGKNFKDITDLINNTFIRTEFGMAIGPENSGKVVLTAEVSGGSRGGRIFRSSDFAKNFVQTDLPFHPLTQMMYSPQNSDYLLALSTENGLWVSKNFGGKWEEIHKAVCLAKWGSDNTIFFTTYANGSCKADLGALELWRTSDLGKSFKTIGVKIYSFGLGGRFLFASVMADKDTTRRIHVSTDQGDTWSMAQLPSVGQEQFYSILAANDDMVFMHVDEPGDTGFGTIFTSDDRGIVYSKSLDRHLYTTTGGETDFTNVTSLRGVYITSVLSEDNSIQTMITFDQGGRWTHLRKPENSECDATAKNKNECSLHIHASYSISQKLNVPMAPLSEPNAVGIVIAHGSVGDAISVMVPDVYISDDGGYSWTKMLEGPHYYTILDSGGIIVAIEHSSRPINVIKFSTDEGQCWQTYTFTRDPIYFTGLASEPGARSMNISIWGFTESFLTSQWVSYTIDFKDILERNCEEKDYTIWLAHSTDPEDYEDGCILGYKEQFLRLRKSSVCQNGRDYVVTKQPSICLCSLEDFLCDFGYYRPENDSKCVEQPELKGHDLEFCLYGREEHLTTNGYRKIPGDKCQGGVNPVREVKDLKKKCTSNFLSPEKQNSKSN
Procedure: SPR analysis was performed on Series S CM5 chips (Cytiva) using a Biacore 8K instrument (Cytiva). Sensorgrams were double-referenced by subtracting the response on both a reference flow cell and a blank sample. Human SORT1 (78-755)-His (Acrobiosystems) was diluted to 60 μg/mL in 10 mM sodium acetate pH 4.5 buffer and immobilized onto Series S CM5 chips using amine coupling at a flow rate of 10 μL/min for 45 s. The final immobilization level of SORT1 was between 2200-2600 RU.
For the multi-cycle kinetics analysis runs, a running buffer of 1×PBS pH 7.4, 0.005% Tween-20 was used. Five start-up cycles and a blank cycle preceded each analysis run. The runs were performed by sequential injections of analyte (0-25 nM) with a 150 seconds (s) association and 300 s dissociation at a flow rate of 30 μL/min, followed by a regeneration with 2 M MgCl₂ for 200 s at a flow rate of 10 μL/min. The kinetic rate constants (kₐ and kd) and the equilibrium binding constant (Kd) were calculated using a 1:1 kinetic binding model on the Biacore Insight Evaluation Software (Cytiva).

Molecule	tumor growth inhibited relative to vehicle ([1]; 3 mg/kg i.v. QW×4, day 22 (Example 8)) [%]	body weight loss ([1]; Example 8, PDC 3 mg/kg, free MMAE 0.6 mg/kg, i.v. QW×4)	blood neutrophil counts [2]	half-life at 2 μM [3] [min]	Kd [4] [nM]
CC[C@H](C)[C@@H]([C@@H](CC(=O)N1CCC[C@H]1[C@H](OC)[C@@H](C)C(=O)N[C@H](C)[C@@H](O)c1ccccc1)OC)N(C)C(=O)[C@@H](NC(=O)[C@H](C(C)C)N(C)C(=O)OCc1ccc(NC(=O)[C@H](CCCNC(N)=O)NC(=O)[C@@H](NC(=O)CCCC(=O)NCCC(=O)N(C)CC(=O)N(C)CC(=O)N(C)CC(=O)N(C)CC(=O)N[C@@H](C)C(=O)N2CCC[C@H]2C(=O)N[C@@H](CCCNC(=N)N)C(=O)N[C@@H](Cc2c[nH]c3ccccc23)C(=O)N[C@@H](CC(=O)O)C(=O)N[C@@H](C)C(=O)N2CCC[C@H]2C(=O)N[C@@H](CC(C)C)C(=O)N[C@@H](CCCNC(=N)N)C(=O)N[C@@H](CC(=O)O)C(=O)N2CCC[C@H]2C(=O)N[C@@H](C)C(=O)N[C@@H](CC(C)C)C(=O)N[C@@H](CCCNC(=N)N)C(=O)N[C@@H](CCC(N)=O)C(=O)N[C@H](C(=O)N[C@@H](CC2CCC2)C(=O)O)C(C)(C)C)C(C)C)cc1)C(C)C [Arb-SAR-Q15-PDC]	98	body weight loss tracked each other	reduced neutrophil counts	49.7	–
Ac-RWCENK([Sar-Sar-Sar-Sar-βAla-VCPAB-MMAE])R[Nle]FTCRQ[Tle][tBuAla]-OH (disulfide 3-11, C-term COOH) [Arb_cyclic_G23-PDC]	–	–	–	–	0.89
